T1: MUC16 ectodomain stably expressed on engineered RD tumor cells (high, medium or low levels) (human)
T1 chain: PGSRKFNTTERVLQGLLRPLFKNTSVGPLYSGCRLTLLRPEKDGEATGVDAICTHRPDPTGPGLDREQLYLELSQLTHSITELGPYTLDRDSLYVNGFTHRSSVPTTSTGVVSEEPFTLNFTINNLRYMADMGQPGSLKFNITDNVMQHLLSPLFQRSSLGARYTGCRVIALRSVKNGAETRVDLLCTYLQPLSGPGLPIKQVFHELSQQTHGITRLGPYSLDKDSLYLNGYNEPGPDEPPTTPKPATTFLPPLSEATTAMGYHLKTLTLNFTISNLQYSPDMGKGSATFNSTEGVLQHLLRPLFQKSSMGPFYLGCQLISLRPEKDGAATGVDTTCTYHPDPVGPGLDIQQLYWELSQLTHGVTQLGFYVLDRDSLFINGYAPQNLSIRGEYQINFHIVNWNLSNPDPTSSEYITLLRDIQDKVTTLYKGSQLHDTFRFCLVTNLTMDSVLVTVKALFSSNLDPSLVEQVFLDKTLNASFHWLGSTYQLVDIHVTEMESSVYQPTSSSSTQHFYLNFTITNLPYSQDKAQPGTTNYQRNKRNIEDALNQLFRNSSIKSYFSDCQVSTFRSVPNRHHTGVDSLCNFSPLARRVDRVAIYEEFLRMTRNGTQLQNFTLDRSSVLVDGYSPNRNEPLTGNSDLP

T2: MUC16-nub ectodomain antigen (human MUC16 membrane proximal domain P13810-P14451 having a myc-myc-his tag) (human)
T2 chain: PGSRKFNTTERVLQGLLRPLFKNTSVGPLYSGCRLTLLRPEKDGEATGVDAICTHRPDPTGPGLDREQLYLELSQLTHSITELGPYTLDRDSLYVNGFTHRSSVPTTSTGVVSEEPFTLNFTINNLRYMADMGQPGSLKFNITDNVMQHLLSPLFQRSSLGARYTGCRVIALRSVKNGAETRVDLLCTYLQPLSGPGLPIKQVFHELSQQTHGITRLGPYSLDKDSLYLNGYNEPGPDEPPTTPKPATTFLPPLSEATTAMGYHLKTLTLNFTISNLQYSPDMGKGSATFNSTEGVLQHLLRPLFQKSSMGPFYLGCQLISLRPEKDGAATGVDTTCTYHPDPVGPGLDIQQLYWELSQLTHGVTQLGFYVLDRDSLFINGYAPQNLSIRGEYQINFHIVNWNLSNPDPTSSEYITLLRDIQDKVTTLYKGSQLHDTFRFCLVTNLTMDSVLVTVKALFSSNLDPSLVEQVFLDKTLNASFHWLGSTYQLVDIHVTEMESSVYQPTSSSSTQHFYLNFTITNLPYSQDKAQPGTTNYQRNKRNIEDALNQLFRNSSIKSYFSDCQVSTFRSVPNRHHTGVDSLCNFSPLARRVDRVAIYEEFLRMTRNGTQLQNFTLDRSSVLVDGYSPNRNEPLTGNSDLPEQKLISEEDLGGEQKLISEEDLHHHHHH


Target: T1, MUC16 ectodomain stably expressed on …
Assay: cell-based or functional assay

| Binder | percent (%) of tumor cell killing, RD low antigen positive tumor cells, 2.5:1 E:T ratio, 72 hours, impedance analyzer | percent (%) of tumor cell killing, RD medium or high antigen positive tumor cells, all E:T ratios, 72 hours, impedance analyzer |
| --- | --- | --- |
| pBB4015 CAR (8808 L-H; BBz) (other) EIVLTQSPDTLSLSPGERATLSCRASQSLSSNYLAWYRQKPGQAPRLLIYGISSRATGIPDRFSGSGSGTDFTLTISRLEPEDFAVYYCQQYGSSPWTFGQGTKVEIKGGGGSGGGGSGGGGSQVQLVESGGGVVQPGRSLRLSCVASGFTFSNYGIHWVRQAPGKGLEWVAVISDDGSFKFYADSVKGRFTISRDNSKNTLYLQMNSLRVEDSAVYHCAKWQHNWNDGGFDYWGQGTLVTVSSTTTPAPRPPTPAPTIASQPLSLRPEACRPAAGGAVHTRGLDFACDIYIWAPLAGTCGVLLLSLVITLYCKRGRKKLLYIFKQPFMRPVQTTQEEDGCSCRFPEEEEGGCELRVKFSRSADAPAYQQGQNQLYNELNLGRREEYDVLDKRRGRDPEMGGKPRRKNPQEGLYNELQKDKMAEAYSEIGMKGERRRGKGHDGLYQGLSTATKDTYDALHMQALPPR | < 60 % cytotoxicity | > 70 % cytotoxicity |

Target: T2, MUC16-nub ectodomain antigen (human …)
Assay: cell-based or functional assay

| Binder | EC50 (read off the curve); IFNγ release of BB4015 CAR T cells against the coating concentration of MUC16 nub |
| --- | --- |
| pBB4015 CAR (8808 L-H; BBz) (other) EIVLTQSPDTLSLSPGERATLSCRASQSLSSNYLAWYRQKPGQAPRLLIYGISSRATGIPDRFSGSGSGTDFTLTISRLEPEDFAVYYCQQYGSSPWTFGQGTKVEIKGGGGSGGGGSGGGGSQVQLVESGGGVVQPGRSLRLSCVASGFTFSNYGIHWVRQAPGKGLEWVAVISDDGSFKFYADSVKGRFTISRDNSKNTLYLQMNSLRVEDSAVYHCAKWQHNWNDGGFDYWGQGTLVTVSSTTTPAPRPPTPAPTIASQPLSLRPEACRPAAGGAVHTRGLDFACDIYIWAPLAGTCGVLLLSLVITLYCKRGRKKLLYIFKQPFMRPVQTTQEEDGCSCRFPEEEEGGCELRVKFSRSADAPAYQQGQNQLYNELNLGRREEYDVLDKRRGRDPEMGGKPRRKNPQEGLYNELQKDKMAEAYSEIGMKGERRRGKGHDGLYQGLSTATKDTYDALHMQALPPR | ~0.05 µg/mL |

Target: T2, MUC16-nub ectodomain antigen (human …)
Assay: Binder Kd of Table 3; method and antigen not described

| Binder | Kd |
| --- | --- |
| Anti-MUC16 8767 (antibody, V domains shown, also called BBz) and pBB4007 (8767 L-H) VH: QVQLVESGGGLVKPGGSLRLSCAASGFTFSNYYMSWVRQAPGKGLEWISYISGRGSTIFYADSVKGRITISRDNAKNSLFLQMNSLRAEDTAVYFCVKDRGGYSPYWGQGTLVTVSS VL: not shown | 1.01 nM |
| Anti-MUC16 7138 (antibody, V domains shown, also called BBz) and pBB4003 (7138 L-H) VH: QVQLVQSGAEVKKPGASVKVSCKASGYTFTSSDINWVRQATGQGLEWVGWMNPNYGYTGSARKFQDRVTMTRNTSLSTAYLELHSLRSEDTAVYYCARVTYCSSVTSCFRPFTYWGQGTLVTVSA VL: not shown | 0.321 nM |
| Anti-MUC16 7135 (antibody, V domains shown, also called BBz) and pBB4001 (7135 L-H) VH: EVQLVESGGGLVQAGGSLRLSCAASGFTFSYHEMNWVRQAPGKGLEWVSYIGSRGTTKHYADPVKGRFTISRDNAKNSLYLQMNSLRAEDTAVYYCASEVGSILGYSMDVWGQGTTVTVSS VL: not shown | 10.5 nM |
| Anti-MUC16 8799 (antibody, V domains shown, also called BBz) and pBB4011 (8799 L-H) VH: EVQLVESGGGLEQPGRSLRLSCTASGFAFGDHTMSWVRQAPGKGLEWVGFIRSRAYGGTTEYAASVKGRFTISRDDSKSIAYLQMDSLKTEDTAVYYCTSGGYDSSLHYYYYYHGMDVWGRGTTVTVSS VL: EIVLTQSPGTLSLSPGERATLSCRASQSITSSYLAWYQQRPGQAPRLLIYGASSRATGIPDRFSGSGSGTDFTLTISRLEPEDFAVYYCQQYGSSPWTFGQGTKVEIK | 0.826 nM |
| Anti-MUC16 8810 (antibody, V domains shown, also called BBz) and pBB4017 (8810 L-H) VH: EVQLVESGGALVQPGGSLRLSCAASGFTFSSYAMHWVRQAPGKGLEFVSTISYNGGTTYYADSVKGRFTVSRDNSKNTVFLRMGSLRTEDMAVYYCARAAAPWGQGTLVTVSS VL: EIVLTQSPDTLSLSPGERATLSCRASQSVSNRYLAWYQQKPGQAPRLLIYGASSRATGIPDRFSGSGSGTDFTLTISRLEPEDFAVYYCHQYGSSPWTFGQGTKVEIK | 1.12 nM |
| Anti-MUC16 8808 (antibody, V domains shown, also called BBz) and pBB4015 (8808 L-H) VH: QVQLVESGGGVVQPGRSLRLSCVASGFTFSNYGIHWVRQAPGKGLEWVAVISDDGSFKFYADSVKGRFTISRDNSKNTLYLQMNSLRVEDSAVYHCAKWQHNWNDGGFDYWGQGTLVTVSS VL: EIVLTQSPDTLSLSPGERATLSCRASQSLSSNYLAWYRQKPGQAPRLLIYGISSRATGIPDRFSGSGSGTDFTLTISRLEPEDFAVYYCQQYGSSPWTFGQGTKVEIK | 0.277 nM |
| Anti-MUC16 8804 (antibody, V domains shown, also called BBz) and pBB4013 (8804 L-H) VH: EVQLVESGGGLVQPGRSLRLSCTGSGLTFGDYGMSWVRQAPGKGLEWVGFIRSKGYGGTTEYAASVKGRFTISRDDSKSTAYLQMNSLKTEDTAVYYCTSGGYDSSVHYYYYYYAMDVWGQGTTVTVSS VL: not shown | 1.86 nM |
| Anti-MUC16 8813 (antibody, V domains shown, also called BBz) and pBB4019 (8813 L-H) VH: QVQLVQSGAEVKKPGASVKVSCKAFGYTLTGYYIHWVRQAPGQGLEWMGWINPNNGGTNYAQKFQGRVTMTRDKSISTAYMELSRLRSDDTAVYYCARSLELLPDGMDVWGQGTTVTVSS VL: not shown | 0.32 nM |
| Anti-MUC16 8794 (antibody, V domains shown, also called BBz) and pBB4009 (8794 L-H) VH: QVQLVESGGGLVKPGGSLRLSCAASGFTFRDYSMSWIRQAPGKGLEWVSYVTFFNSAIYYADSVKGRFTISRDNAKNSLYLQMNSLRAEDTAVYYCAREREPIVGGFDYWGQGTLVTVSS VL: DIQMTQSPSSLSASVGDRVTITCRASQSINSYLNWYQQKPGKAPKLLIYAASSLQGGVPSRFSGGGSGTDFTLTITSLQPEDFATFYCQQSYSSPPITFGQGTRLEIK | 0.554 nM |
| Anti-MUC16 8755 (antibody, V domains shown, also called BBz) and pBB4005 (8755 L-H) VH: EVQLVESGGGLVQPGRSLRLSCAASGFTFNDYAMHWVRQSPGKGLEWVSGIDWNGGSIDYADSVKGRFTISRDTAKNSLYLQMNSLKVEDTALYYCAKDIGHWNYIGGMDVWGQGTTVTVSS VL: DIQMTQSPSSLSASVGDRVTITCRASQSINIYLNWYQQKPGKAPKFLIYAASSLQTGVPSRFSGSGSGTDFTLTISSLEPEDFATYYCQHSYSTPPITFGQGTRLEIK | 0.124 nM |

From US20250082756A1 (Regeneron, published 2025)
